Consider seven proteins from US6869778.

Positions count from the first letter of the chain named. Names and notes keep the numbering of the source. Values joined by “and” are separate entries in the source; they are usually repeats but may differ in a detail not shown here. Identical values can stand only once.

B1: wild type human t-PA, two-chain form (protein)
chain 1: SYQVICRDEKTQMIYQQHQSWLRPVLRSNRVEYCWCNSGRAQCHSVPVKSCSEPRCFNGGTCQQALYFSDFVCQCPEGFAGKCCEIDTRATCYEDQGISYRGTWSTAESGAECTNWNSSALAQKPYSGRRPDAIRLGLGNHNYCRNPDRDSKPWCYVFKAGKYSSEFCSTPACSEGNSDCYFGNGSAYRGTHSLTESGASCLPWNSMILIGKVYTAQNPSAQALGLGKHNYCRNPDGDAKPWCHVLKNRRLTWEYCDVPSCSTCGLRQYSQPQFR
chain 2: IKGGLFADIASHPWQAAIFAKHRRSPGERFLCGGILISSCWILSAAHCFQERFPPHHLTVILGRTYRVVPGEEEQKFEVEKYIVHKEFDDDTYDNDIALLQLKSDSSRCAQESSVVRTVCLPPADLQLPDWTECELSGYGKHEALSPFYSERLKEAHVRLYPSSRCTSQHLLNRTVTDNMLCAGDTRSGGPQANLHDACQGDSGGPLVCLNDGRMTLVGIISWGLGCGQKDVPGVYTKVTNYLDWIRDNMRP
B2: t-PA/K429Y, two-chain form (protein)
chain 1: B1 chain 1
chain 2: B1 chain 2 with K154Y
B3: t-PA/R275E, single-chain form (protein)
chain: SYQVICRDEKTQMIYQQHQSWLRPVLRSNRVEYCWCNSGRAQCHSVPVKSCSEPRCFNGGTCQQALYFSDFVCQCPEGFAGKCCEIDTRATCYEDQGISYRGTWSTAESGAECTNWNSSALAQKPYSGRRPDAIRLGLGNHNYCRNPDRDSKPWCYVFKAGKYSSEFCSTPACSEGNSDCYFGNGSAYRGTHSLTESGASCLPWNSMILIGKVYTAQNPSAQALGLGKHNYCRNPDGDAKPWCHVLKNRRLTWEYCDVPSCSTCGLRQYSQPQFEIKGGLFADIASHPWQAAIFAKHRRSPGERFLCGGILISSCWILSAAHCFQERFPPHHLTVILGRTYRVVPGEEEQKFEVEKYIVHKEFDDDTYDNDIALLQLKSDSSRCAQESSVVRTVCLPPADLQLPDWTECELSGYGKHEALSPFYSERLKEAHVRLYPSSRCTSQHLLNRTVTDNMLCAGDTRSGGPQANLHDACQGDSGGPLVCLNDGRMTLVGIISWGLGCGQKDVPGVYTKVTNYLDWIRDNMRP
B4: t-PA/H417D, two-chain form (protein)
chain 1: B1 chain 1
chain 2: B1 chain 2 with H142D
B5: t-PA/H417E, two-chain form (protein)
chain 1: B1 chain 1
chain 2: B1 chain 2 with H142E
B6: t-PA/R275E,H417E, single-chain form (protein)
chain: B3 chain with H417E
B7: t-PA/R275E,H417D, single-chain form (protein)
chain: B3 chain with H417D

The first data set deals with fibrinogen.
As for B1, the “stimulation of plasminogen activation by co-factor (indirect chromogenic assay)” value (“stimulation of plasminogen activation” below) is given as “strongly stimulated”.

Turning to B2, the “stimulation of plasminogen activation” value is listed as “strongly stimulated”.

On to B3, for which the “stimulation of plasminogen activation” value is “stimulated strongly”.

A further data set addresses T1, lys-plasminogen, P00747.
T1 chain: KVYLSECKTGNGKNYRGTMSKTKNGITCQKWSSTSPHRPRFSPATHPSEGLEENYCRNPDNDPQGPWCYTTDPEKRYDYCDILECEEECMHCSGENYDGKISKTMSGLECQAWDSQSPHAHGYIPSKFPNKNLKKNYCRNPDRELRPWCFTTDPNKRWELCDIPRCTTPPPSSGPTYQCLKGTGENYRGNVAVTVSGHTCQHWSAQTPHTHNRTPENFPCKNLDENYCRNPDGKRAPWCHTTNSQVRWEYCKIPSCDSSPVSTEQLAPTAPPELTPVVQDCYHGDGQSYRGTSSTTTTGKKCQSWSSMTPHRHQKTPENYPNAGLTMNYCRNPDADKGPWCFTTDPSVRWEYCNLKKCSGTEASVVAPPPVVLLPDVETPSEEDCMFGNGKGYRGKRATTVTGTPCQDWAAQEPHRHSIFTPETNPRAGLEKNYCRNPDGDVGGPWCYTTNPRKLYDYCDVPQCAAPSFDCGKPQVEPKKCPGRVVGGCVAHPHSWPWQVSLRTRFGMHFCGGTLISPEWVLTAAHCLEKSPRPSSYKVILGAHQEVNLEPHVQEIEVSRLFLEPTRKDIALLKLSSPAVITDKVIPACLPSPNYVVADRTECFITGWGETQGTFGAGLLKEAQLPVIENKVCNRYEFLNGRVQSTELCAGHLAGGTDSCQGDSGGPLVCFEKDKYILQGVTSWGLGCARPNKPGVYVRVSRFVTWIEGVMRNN
As for B1, the Kcat of plasminogen activation in the absence of a cofactor is 0.093 s⁻¹ and 0.16 s⁻¹; the Kcat of plasminogen activation in the presence of fibrin is 0.11 s⁻¹ and 0.08 s⁻¹; the Kcat/Km of plasminogen activation in the absence of a cofactor is 14000 M⁻¹ s⁻¹ and 16000 M⁻¹ s⁻¹; the Kcat/Km of plasminogen activation in the presence of fibrin is 6.5e+06 M⁻¹ s⁻¹ and 4e+06 M⁻¹ s⁻¹. The Km of plasminogen activation in the absence of a cofactor is 6.7 µM and 10 µM; the Km of plasminogen activation in the presence of fibrin is 0.017 µM and 0.02 µM.

For B4, the Kcat of plasminogen activation in the absence of a cofactor is 0.11 s⁻¹, the Kcat of plasminogen activation in the presence of fibrin stood at 0.11 s⁻¹, the Kcat/Km of plasminogen activation in the absence of a cofactor worked out at 16000 M⁻¹ s⁻¹ and the Kcat/Km of plasminogen activation in the presence of fibrin came to 4.6e+06 M⁻¹ s⁻¹. For the same protein, the Km of plasminogen activation in the absence of a cofactor amounted to 6.8 µM and the Km of plasminogen activation in the presence of fibrin was 0.024 µM.

Turning to B2, the Kcat of plasminogen activation in the absence of a cofactor came to 0.18 s⁻¹, the Kcat of plasminogen activation in the presence of fibrin was 0.08 s⁻¹, the Kcat/Km of plasminogen activation in the absence of a cofactor is 13000 M⁻¹ s⁻¹ and the Kcat/Km of plasminogen activation in the presence of fibrin is 3e+06 M⁻¹ s⁻¹. Also, the Km of plasminogen activation in the absence of a cofactor was 14 µM; the Km of plasminogen activation in the presence of fibrin came out at 0.03 µM; the “fold difference of activity toward plasminogen without co-factor, against two-chain t-PA” value is “differed by a factor of only 1.2”; the “percent of the activity of two-chain t-PA toward plasminogen in the presence of fibrin” value is listed as “approximately 75% of the activity of two-chain t-PA”.

As for B5, the Kcat of plasminogen activation in the absence of a cofactor was determined as 0.099 s⁻¹, the Kcat of plasminogen activation in the presence of fibrin worked out at 0.1 s⁻¹, the Kcat/Km of plasminogen activation in the absence of a cofactor was found to be 11000 M⁻¹ s⁻¹ and the Kcat/Km of plasminogen activation in the presence of fibrin amounted to 4.5e+06 M⁻¹ s⁻¹. Further, the Km of plasminogen activation in the absence of a cofactor came out at 8.7 µM and the Km of plasminogen activation in the presence of fibrin stood at 0.022 µM.

Take B3: the Kcat of plasminogen activation in the absence of a cofactor is 0.014 s⁻¹ and 0.038 s⁻¹; the Kcat of plasminogen activation in the presence of fibrin is 0.16 s⁻¹ and 0.1 s⁻¹; the Kcat/Km of plasminogen activation in the absence of a cofactor was 1500 M⁻¹ s⁻¹ and 1300 M⁻¹ s⁻¹; the Kcat/Km of plasminogen activation in the presence of fibrin was 9.4e+06 M⁻¹ s⁻¹ and 5e+06 M⁻¹ s⁻¹. The Km of plasminogen activation in the presence of fibrin is 0.017 µM and 0.02 µM.

Consider B6, for which the Kcat of plasminogen activation in the absence of a cofactor was 0.002 s⁻¹, the Kcat of plasminogen activation in the presence of fibrin stood at 0.17 s⁻¹, the Kcat/Km of plasminogen activation in the absence of a cofactor is 240 M⁻¹ s⁻¹ and the Kcat/Km of plasminogen activation in the presence of fibrin came out at 6.1e+06 M⁻¹ s⁻¹. Also, the Km of plasminogen activation in the absence of a cofactor was found to be 8.5 µM; the Km of plasminogen activation in the presence of fibrin was 0.028 µM; the “fold reduction of activity toward plasminogen without co-factor, against single chain t-PA/R275E” value is listed as “reduced by a factor of approximately 14 or 6, respectively”.

As for B7, the Kcat of plasminogen activation in the absence of a cofactor amounted to 0.001 s⁻¹, the Kcat of plasminogen activation in the presence of fibrin is 0.23 s⁻¹, the Kcat/Km of plasminogen activation in the absence of a cofactor is 110 M⁻¹ s⁻¹ and the Kcat/Km of plasminogen activation in the presence of fibrin turned out to be 5.3e+06 M⁻¹ s⁻¹. Also, the Km of plasminogen activation in the absence of a cofactor is 9.4 µM; the Km of plasminogen activation in the presence of fibrin was 0.043 µM; the “fold reduction of activity toward plasminogen without co-factor, against single chain t-PA/R275E” value was “reduced by a factor of approximately 14 or 6, respectively”.

The target of the next data set is soluble fibrin monomers (DESAFIB).
Take B1: the Fold stimulation of kcat/Km by fibrin is 460 fold and 250 fold; the “fibrin selectivity factor (specific activity in the presence of fibrin over that in the presence of fibrinogen)” value (shortened to “fibrin selectivity factor”) is 1.5 for two-chain t-PA; the “stimulation of plasminogen activation” value is listed as “strongly stimulated”.

In turn, B4 registered a Fold stimulation of kcat/Km by fibrin of 290 fold.

For B2, the Fold stimulation of kcat/Km by fibrin is 230 fold, the “fibrin selectivity factor” value turned out to be 1.5 for two-chain t-PA/K429Y and the “stimulation of plasminogen activation” value was “strongly stimulated”.

For B5, the Fold stimulation of kcat/Km by fibrin turned out to be 410 fold.

On to B3, for which the Fold stimulation of kcat/Km by fibrin is 6300 fold and 3800 fold; the “fibrin selectivity factor” value is reported as 1.0 for single chain t-PA/R275E; the “stimulation of plasminogen activation” value is on record as “stimulated strongly”.

B6 yielded a Fold stimulation of kcat/Km by fibrin of 25400 fold.

B7 displayed a Fold stimulation of kcat/Km by fibrin of 48200 fold.

The target in another data set is stimulatory thirteen amino acid peptide P368.
In the case of B1, the “stimulation of plasminogen activation” value is “strongly stimulated”.

Regarding B2, the “stimulation of plasminogen activation” value is given as “strongly stimulated”.

With B3, the “stimulation of plasminogen activation” value is given as “moderately”.
